Nine molecules from patent US20130295102A1 (Novartis, published 2013) can be followed below.

Where a chain is given by its changes, count along the chain named.

To fix the notation:
B1: NVS966 (Fab, V domains shown)
VH: EVQLVQSGAEVKKPGESLKISCKGSGYSFTNYWIGWVRQMPGKGLEWMGRIDPGESLTNYAPSFQGQVTISADKSISTAYLQWSSLKASDTAMYYCARTGVADVDMPFAHWGQGTLVTVSS
VL: SYVLTQPPSVSVAPGKTARISCSGDNLGSYYVNWYQQKPGQAPVLVIYGDSERPSGIPERFSGSNSGNTATLTISRAQAGDEADYYCGSWDITSFVFGGGTKLTVLG
notes: Disulfide-bridged Fab; also called Fab NVS966
B2: NVS963 (Fab, V domains shown)
VH: EVQLVQSGAEVKKPGSSVKVSCKASGGTFSSYAISWVRQAPGQGLEWMGPINPYYGDAIYAQKFQGRVTITADESTSTAYMELSSLRSEDTAVYYCARYYSDYMDYWGQGTLVTVSS
VL: QSVLTQPPSVSGAPGQRVTISCTGSSSNIGAGYDVHWYQQLPGTAPKLLIHDNSHRPSGVPDRFSGSKSGTSASLAITGLQSEDEADYYCASYDESAHSVFGGGTKLTVLG
notes: Disulfide-bridged Fab; also called Fab NVS963
B3: NVS964 (Fab, V domains shown)
VH: EVQLVQSGAEVKKPGASVKVSCKASGYTFTSHYMHWVRQAPGQGLEWMGKINADLGDTNYAQKFQGRVTMTRDTSISTAYMELSSLRSEDTAVYYCARDGIEHGGHYYWGYLFDIWGQGTLVTVSS
VL: SYELTQPPSVSVAPGQTARISCSGDSIREYYVHWYQQKPGQAPVLVIGDDTNRPSGIPERFSGSNSGNTATLTISGTQAEDEADYYCAAWDFSPAIVFGGGTKLTVLG
notes: Disulfide-bridged Fab; also called Fab NVS964
B4: NVS967 (Fab, V domains shown)
VH: B3 VH with K50N, A53P, D54V, L55D, D57G, N59E
VL: B3 VL with E3V, Q16K, G76R, T77A, E80G
notes: Disulfide-bridged Fab; also called Fab NVS967
B5: NVS962-T (Fab, V domains shown)
VH: EVQLVQSGAEVKKPGSSVKVSCKASGGTFTSYAISWVRQAPGQGLEWMGRIIPIFGTANYAQKFQGRVTITADESTSTAYMELSSLRSEDTAVYYCARHGGYSFDSWGQGTLVTVSS
VL: SYELTQPPSVSVAPGQTARISCSGDNLGSKYVDWYQQKPGQAPVLVIYSDNNRPSGIPERFSGSNSGNTATLTISGTQAEDEADYYCQTYTSGNNYLVFGGGTKLTVLG
notes: NVS962 with heavy chain N30 replaced with threonine; also called NSV962-T
B6: NVS965 (Fab, V domains shown)
VH: B5 VH with T30N
VL: B5 VL with E3V, Q16K, E80M, Q88A, T91D, G93S, N94P, N95R, Y96T, L97E
notes: Disulfide-bridged Fab; also called Fab NVS965
B7: NVS965-Q (Fab, V domains shown)
VH: B5 VH with T30Q
VL: B5 VL with E3V, Q16K, E80M, Q88A, T91D, G93S, N94P, N95R, Y96T, L97E
notes: NVS965 with heavy chain N30 replaced with glutamine
B8: NVS965-T (Fab, V domains shown)
VH: B5 VH
VL: B5 VL with E3V, Q16K, E80M, Q88A, T91D, G93S, N94P, N95R, Y96T, L97E
notes: NVS965 with heavy chain N30 replaced with threonine
B9: NVS965-S (Fab, V domains shown)
VH: B5 VH with T30S
VL: B5 VL with E3V, Q16K, E80M, Q88A, T91D, G93S, N94P, N95R, Y96T, L97E
notes: NVS965 with heavy chain N30 replaced with serine

The target of one experiment is T1, Human Factor P (human, UniProt P27918 29-469).
T1 construct: Bought protein (Complement Technology cat# A139) in SET and Biacore; Factor P of human serum in the functional assays; also called FP; human FP
T1 sequence (P27918 29-469 limits assumed): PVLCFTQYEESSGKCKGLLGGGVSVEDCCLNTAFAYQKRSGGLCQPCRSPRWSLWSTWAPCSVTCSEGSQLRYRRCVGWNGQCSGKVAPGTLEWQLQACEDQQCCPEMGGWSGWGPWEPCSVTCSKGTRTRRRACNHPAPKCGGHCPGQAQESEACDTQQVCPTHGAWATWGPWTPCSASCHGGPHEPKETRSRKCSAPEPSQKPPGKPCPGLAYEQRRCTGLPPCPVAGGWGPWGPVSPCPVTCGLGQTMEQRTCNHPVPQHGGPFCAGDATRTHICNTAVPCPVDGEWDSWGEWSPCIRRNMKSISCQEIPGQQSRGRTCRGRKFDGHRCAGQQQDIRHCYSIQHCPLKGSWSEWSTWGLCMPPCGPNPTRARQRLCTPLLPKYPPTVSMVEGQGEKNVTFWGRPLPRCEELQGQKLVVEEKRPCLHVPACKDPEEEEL
In words: Biacore SPR, captured Factor P. In general terms: Surface plasmon resonance follows binding to a sensor surface in real time, without labels.
As a reminder, the Kd is the equilibrium constant for the complex coming apart. As a reminder, the koff is the rate constant with which the complex falls apart. The low end stands for a long-lived complex, the high end for a short-lived complex. The term kon denotes the rate constant with which the complex forms. A low value points to slower complex formation. For B1, the affinity, expressed as Kd, was 0.16 nM; the koff was found to be 0.0003 s⁻¹; the kon is 2e+06 M⁻¹ s⁻¹.
The like results for B2 were, in that order, 0.09 nM, 0.0001 s⁻¹ and 1e+06 M⁻¹ s⁻¹.
Take B3: the equilibrium dissociation constant (Kd) was found to be 0.035 nM, the koff came out at 4e-05 s⁻¹ and the kon was 1e+06 M⁻¹ s⁻¹.
On the same counts, the results for B4 are 0.06 nM, 9e-05 s⁻¹ and 1e+06 M⁻¹ s⁻¹.
With B5, the equilibrium dissociation constant (Kd) was found to be 0.131 nM, the koff turned out to be 8.35e-05 s⁻¹ and the kon turned out to be 639000 M⁻¹ s⁻¹.
On the same counts, the results for B6 are 0.016 nM, 4.1e-05 s⁻¹ and 2.65e+06 M⁻¹ s⁻¹.
The molecule B7 returned a Kd of 0.138 nM, a dissociation rate constant (koff) of 0.000366 s⁻¹ and a kon of 2.65e+06 M⁻¹ s⁻¹.
B8 returned a Kd of 0.0514 nM, a koff of 0.000103 s⁻¹ and an association rate constant (kon) of 2.37e+06 M⁻¹ s⁻¹.
The molecule B9 registered a Kd of 0.027 nM, a koff of 9.9e-05 s⁻¹ and a kon of 3.69e+06 M⁻¹ s⁻¹.

The target of a further experiment is T2, Cynomolgus Factor P (cynomolgus).
T2 construct: Purified from cynomolgus serum for SET/Biacore; Factor P of cynomolgus serum in the functional assays; also called Cyno Factor P; cyno FP
In words: Biacore SPR, captured Factor P.
Consider B1, for which the Kd was 0.21 nM, the off-rate constant (koff) turned out to be 0.0002 s⁻¹ and the on-rate (kon) is 1e+06 M⁻¹ s⁻¹.
The like results for B2 were, in that order, 0.17 nM, 0.0002 s⁻¹ and 1e+06 M⁻¹ s⁻¹.
Regarding B3, binding was put at a Kd of 0.16 nM, the off-rate constant (koff) is 0.0002 s⁻¹ and the kon was 1e+06 M⁻¹ s⁻¹.
The like results for B4 were, in that order, 0.315 nM, 0.0006 s⁻¹ and 1e+06 M⁻¹ s⁻¹.
On the same counts, the results for B5 are 0.175 nM, 8.56e-05 s⁻¹ and 488000 M⁻¹ s⁻¹.
B6 gave a Kd of 0.028 nM, a koff of 6.22e-05 s⁻¹ and a kon of 2.24e+06 M⁻¹ s⁻¹.
On the same counts, the results for B7 are 0.215 nM, 0.000594 s⁻¹ and 2.77e+06 M⁻¹ s⁻¹.
The like results for B8 were, in that order, 0.0746 nM, 0.000151 s⁻¹ and 2.17e+06 M⁻¹ s⁻¹.
The like results for B9 were, in that order, 0.06 nM, 0.000163 s⁻¹ and 2.71e+06 M⁻¹ s⁻¹.

The target of a further experiment is T1, Human Factor P. In words: SET, solution equilibrium titration. The procedure: (§1) In SET, a constant amount of antibody is incubated with different concentrations of antigen until equilibrium is reached. The concentration of free antibody in the equilibrated solution is determined by applying the solution on an antigen coated MSD™ plate (Meso Scale Discovery™) followed by incubation with an ECL-labeled secondary antibody and measurement of signal intensity. At low antigen concentrations, a strong signal is achieved (high concentration of free antibody which binds to the antigen on the plate) whereas for high antigen concentration, the antibody is completely antigen-captured, resulting in a low signal. If a sufficient number of antigen concentrations in a matching range are available, the titration curve allows for a reasonable determination of the affinity, using the appropriate fit model. […] The constant concentration of antibody applied in the assay should be in the range of, or below, the KD (Table 4).
(§2) Human Factor P (Complement Technology cat#: A139) and Cyno Factor P purified from cyno serum (protocol adapted from Nakano, et al., (1986) J Immunol Methods 90:77-83) were coated on standard binding MSD plates (Meso-Scale Discovery, 384-well: MSD cat#: L21XA, 96-well: MSD cat#: L15XA) at 0.2-0.3 μg/ml in 25 μl PBS and incubated overnight at 4° C. Factor P inhibitors were diluted to a fixed concentration (1 pM or 10 pM) in incubation buffer (PBS with 2% BSA (Sigma cat#: A4503) and 1% Tween20 and 1% Triton-X (Sigma cat#: 234729)), and added to a serial dilution of Factor P (human or cyno) in incubation buffer. Samples were allowed to reach equilibrium by incubation at RT overnight. Plates were washed 3× in wash buffer (PBS with 0.05% Tween20), and blocked with 100 μl incubation buffer at RT for 2 hrs. Plates were washed 3× in wash buffer. Sample containing Factor P inhibitors and Factor P titration were added to the plate (25 μl), and incubated at RT for 15 min. Plates were washed 3× in wash buffer. 25 μl detection antibody was added (Anti-Human (Goat) Sulfo-TAG, 1:1000 in incubation buffer, MSD cat#: R32AJ-1), and incubated at RT for 60 min. Plates were washed 3× in wash buffer, and 50 μl of 1×MSD Read buffer T was added (with surfactant, MSD cat#: R92TC-1). Plates were read on a MSD Spector Imager 6000.
Regarding B1, the Kd came to 0.07 nM.
Still for that read-out and setting: the value for B2 was 0.055 nM; that for B3 was 0.02 nM; that for B4 was 0.04 nM.
Take B5: the dissociation constant Kd was 0.251 nM.
Turning to B6, the Kd amounted to 0.036 nM.
Turning to B7, the Kd was 0.301 nM.
B8: the equilibrium dissociation constant (Kd) came out at 0.052 nM.
Consider B9, for which the dissociation constant Kd amounted to 0.051 nM.

A further experiment addresses T2, Cynomolgus Factor P. In words: SET, solution equilibrium titration. The procedure:
as §1, §2
As to B1, the dissociation constant (Kd) stood at 0.04 nM.
As for B2, the Kd came to 0.115 nM.
On the same count and under the same terms, the value for B3 was 0.19 nM; that for B4 was 0.28 nM.
Consider B5, for which the equilibrium dissociation constant (Kd) is 0.354 nM.
On the same count and under the same terms, under B6 stands 0.014 nM; under B7, 0.201 nM; under B8, 0.044 nM.
Same read-out and setting: the value for B9 was 0.036 nM.

The next experiment deals with T1, Human Factor P. In words: cell-based or functional assay.
On to B1, for which the “Hemolytic assay IC50 (nM), 10% serum” value came to 7.15 nM; the “Inhibition of C3a generation, 20% human serum” value (“Inhibition … 20% human serum” below) is 41.1 nM; the “Zymosan-C3b IC50 (nM), 10% serum” value was 1.66 nM.
With B2, the “Hemolytic assay IC50 (nM), 10% serum” value was found to be 10.1 nM; the “Inhibition … 20% human serum” value is 65.1 nM; the “Zymosan-C3b IC50 (nM), 10% serum” value stood at 2.34 nM.
Consider B3, for which the “Hemolytic assay IC50 (nM), 10% serum” value amounted to 9.26 nM; the “Inhibition … 20% human serum” value turned out to be 42.2 nM; the “Zymosan-C3b IC50 (nM), 10% serum” value was determined as 1.54 nM.
On the same counts, the results for B4 are 9.61 nM, 43.5 nM and 2.53 nM.
B5: the “Hemolytic assay IC50 (nM), 10% serum” value was determined as 9.31 nM; the “MAC Deposition, 20% Serum EC50” value came to 6.61 nM; the “Zymosan-C3b IC50 (nM), 10% serum” value came out at 1.75 nM.
As to B6, the “Hemolytic assay IC50 (nM), 10% serum” value stood at 7.53 nM; the “Inhibition … 20% human serum” value was found to be 31.3 nM; the “MAC Deposition, 20% Serum EC50” value came to 17.3 nM; the “Zymosan-C3b IC50 (nM), 10% serum” value worked out at 1.54 nM.
For B7, the “Hemolytic assay IC50 (nM), 10% serum” value was 9.71 nM; the “MAC Deposition, 20% Serum EC50” value worked out at 15.4 nM; the “Zymosan-C3b IC50 (nM), 10% serum” value is 1.64 nM.
On the same counts, the results for B8 are 7.15 nM, 13.8 nM and 0.77 nM.
On the same counts, the results for B9 are 7.89 nM, 7.32 nM and 1.39 nM.

Another experiment addresses T2, Cynomolgus Factor P. In words: cell-based or functional assay.
On to B1, for which the “Hemolytic assay IC50 (nM), 10% serum” value is 13 nM and the “Zymosan-C3b IC50 (nM), 10% serum” value was determined as 6.62 nM.
Take B2: the “Hemolytic assay IC50 (nM), 10% serum” value came to 14.5 nM and the “Zymosan-C3b IC50 (nM), 10% serum” value was 9.75 nM.
For the molecule B3, the “Hemolytic assay IC50 (nM), 10% serum” value is 13.4 nM and the “Zymosan-C3b IC50 (nM), 10% serum” value came to 6.59 nM.
On the same counts, the results for B4 are 14 nM and 5.92 nM.
For B5, the “Hemolytic assay IC50 (nM), 10% serum” value came to 12.5 nM; the “MAC Deposition, 20% Serum EC50” value was found to be 5.42 nM; the “Zymosan-C3b IC50 (nM), 10% serum” value came out at 3.1 nM.
Turning to B6, the “Hemolytic assay IC50 (nM), 10% serum” value turned out to be 13.2 nM; the “MAC Deposition, 20% Serum EC50” value worked out at 22.2 nM; the “Zymosan-C3b IC50 (nM), 10% serum” value is 6.36 nM.
On the same counts, the results for B7 are 14.7 nM, 9.39 nM and 3.3 nM.
Consider B8, for which the “Hemolytic assay IC50 (nM), 10% serum” value was 12.5 nM; the “MAC Deposition, 20% Serum EC50” value is 11 nM; the “Zymosan-C3b IC50 (nM), 10% serum” value came to 1.91 nM.
The like results for B9 were, in that order, 12 nM, 8.12 nM and 1.57 nM.
